Where a chain is given by its changes, count along the chain named.
B1: SEQ ID NO: 38 (VHH)
chain: EVQLVESGGGLVQPGGSLRLSCAASGFTFSSYAMSWVRQAPGKGLEWVSGIKSSGDSTRYAGSVKGRFTISRDNAKNTLYLQMNSLRPEDTAVYYCAKSRVSRTGLYTYDNRGQGTLVTVSSGGGGSGGGGSGGGGSGGGGSEVQLVESGGGLVQPGGSLRLSCAASGRTFNNYAMGWFRQAPGKEREFVAAITRSGVRSGVSAIYGDSVKDRFTISRDNAKNTLYLQMNSLRPEDTAVYYCAASAIGSGALRRFEYDYSGQGTLVTVSSA
B2: SEQ ID NO: 42 (VHH)
chain: EVQLVESGGGLVQPGGSLRLSCAASGRTFSYNPMGWFRQAPGKGRELVAAISRTGGSTYYPDSVEGRFTISRDNAKRMVYLQMNSLRAEDTAVYYCAAAGVRAEDGRVRTLPSEYTFWGQGTQVTVSSAAAEVQLVESGGGLVQPGGSLRLSCAASGRTFSYNPMGWFRQAPGKGRELVAAISRTGGSTYYPDSVEGRFTISRDNAKRMVYLQMNSLRAEDTAVYYCAAAGVRAEDGRVRTLPSEYTFWGQGTQVTVSSA
B3: SEQ ID NO: 43 (VHH)
chain: DVQLVESGGGLVQPGGSLRLSCAASGFILDYYAIGWFRQAPGKEREGVLCIDASDDITYYADSVKGRFTISRDNSKNTVYLQMNSLRPEDTAVYYCATPIGLSSSCLLEYDYDYWGQGTLVTVSSGGGGSGGGSEVQLLESGGGLVQPGGSLRLSCAASGFTFRSFGMSWVRQAPGKGPEWVSSISGSGSDTLYADSVKGRFTISRDNSKNTLYLQMNSLRPEDTAVYYCTIGGSLSRSSQGTLVTVSSA
B4: SEQ ID NO: 47 (VHH)
VHH: EVQLVESGGGLVQPGGSLRLSCAASGSVFKINVMAWYRQAPGKGRELVAGIISGGSTSYADSVKGRFTISRDNAKNTLYLQMNSLRPEDTAVYYCAFITTESDYDLGRRYWGQGTLVTVSS
B5: SEQ ID NO: 65 (VHH)
VHH: EVQLVESGGGLVQAGGSLRLSCAASRSIGRLDRMGWYRHRPGEPRELVATITGGSSINYGDSVKGRFTISIDNSKNTVYLQMNSLRPEDTAVYYCNFNKYVTSRDTWGQGTLVTVSS
B6: SEQ ID NO: 66 (VHH)
VHH: B5 VHH with L11S, A14P
B7: SEQ ID NO: 67 (VHH)
VHH: B5 VHH with A14P, R86K
B8: SEQ ID NO: 68 (VHH)
VHH: B5 VHH with L112Q
B9: SEQ ID NO: 69 (VHH)
VHH: B5 VHH with A14P, L112Q
B10: SEQ ID NO: 70 (VHH)
VHH: B5 VHH with A14P, T114Q
B11: SEQ ID NO: 71 (VHH)
VHH: B5 VHH with A14P, S117G
B12: SEQ ID NO: 72 (VHH)
VHH: B5 VHH with A14P, S116G, S117G
B13: SEQ ID NO: 73 (VHH)
VHH: B5 VHH with A14P, S116G, S117G
B14: SEQ ID NO: 74 (VHH)
VHH: B5 VHH with A14P
B15: SEQ ID NO: 75 (VHH)
VHH: B5 VHH with A14P
B16: SEQ ID NO: 76 (VHH)
VHH: B5 VHH with A14P
B17: SEQ ID NO: 77 (VHH)
VHH: B5 VHH with A14P
B18: SEQ ID NO: 78 (VHH)
VHH: B5 VHH with Q13R, A14P
B19: SEQ ID NO: 79 (VHH)
VHH: B5 VHH with A14P
B20: SEQ ID NO: 80 (VHH)
VHH: B5 VHH with A14P, T114Q, S116G, S117G
B21: SEQ ID NO: 81 (VHH)
VHH: B5 VHH with L11V, A14P
B22: SEQ ID NO: 82 (VHH)
VHH: B5 VHH with A14P, P87A
B23: SEQ ID NO: 83 (VHH)
VHH: B5 VHH with A14P, T90A
B24: SEQ ID NO: 84 (VHH)
VHH: B5 VHH with A14P, S116G
B25: SEQ ID NO: 85 (VHH)
VHH: B5 VHH with L11S, A14P, T114Q, S116G, S117G
B26: SEQ ID NO: 86 (VHH)
VHH: B5 VHH with L11S, A14P, T114Q
B27: SEQ ID NO: 87 (VHH)
VHH: B5 VHH with L11S, A14P, S116G, S117G
B28: SEQ ID NO: 88 (VHH)
VHH: B5 VHH with L11S, A14P, T114Q
B29: SEQ ID NO: 89 (VHH)
VHH: B5 VHH with L11S, T114Q, S116G, S117G

How the values were obtained:
Assay in all cases: SPR, interference factor immobilized; % of Fig. 9 reference
[1] = target: T1, purified interference factor(s) from Donor A (human)
T1 construct: also called interference in serum from Donor A

[2] = target: T2, purified interference factor(s) from Donor C (human)
T2 construct: the text names the donors 8, 19 and 30; also called interference in serum from Donor C

[3] = target: T3, purified interference factor(s) from Donor B (human)
T3 construct: the text names the donors 8, 19 and 30; also called interference in serum from Donor B

Binder	interference binding, % of Reference Sequence [1] [%]	interference binding, % of Reference Sequence [2] [%]	interference binding, % of Reference Sequence [3] [%]
B1	9	7	25
B2	1	–	4
B3	3	–	20
B4	1	–	–
B5	73	64	121
B6	81	84	29
B7	102	96	117
B8	38	49	115
B9	80	84	120
B10	90	98	105
B11	88	87	105
B12	70	56	47
B13	6	9	8
B14	4	33	41
B15	1	16	11
B16	2	20	17
B17	2	13	12
B18	96	100	96
B19	1	13	17
B20	65	58	5
B21	94	89	50
B22	96	100	80
B23	56	61	73
B24	84	83	50
B25	46	42	5
B26	76	86	6
B27	51	39	5
B28	1	11	5
B29	14	17	5

From EP2974737A1 (Ablynx N.V., dated 2016)
